One block for each molecule: values may come before it. Peptide text beside a SMILES is read from it. * marks the point of attachment. Propyl(3-UDP) = O=c1ccn([C@@H]2O[C@H](COP(=O)(O)OP(=O)(O)OCCC*)[C@@H](O)[C@H]2O)c(=O)[nH]1
Columns and labels:
[1] = molecular target: TaOGA53 (Trichoplax O-GlcNAcase) (Trichoplax adhaerens, UniProt A0A0D5X1V2)
[2] = molecular target: T1, TaOGT (Trichoplax O-GlcNAc transferase) (Trichoplax adhaerens, UniProt A0A0D5X2K0); test: fluorescence UDP-detection OGT assay, […] UDP-GlcNAc; format: biochemical
T1 construct: TaOGT, start identified by RACE, wild type, GST tag cleaved

purified protein = substrate: CC(=O)N[C@H]1[C@H](Oc2ccc3c(C)cc(=O)oc3c2)O[C@H](CO)[C@@H](O)[C@@H]1O; test: purified protein
[3] = substrate: CC(=O)N[C@H]1[C@@H](OP(=O)(O)OP(=O)(O)OC[C@H]2O[C@@H](n3ccc(=O)[nH]c3=O)[C@H](O)[C@@H]2O)O[C@H](CO)[C@@H](O)[C@@H]1O; test: steady-state kinetics (Km), fluorescence UDP-detection assay; format: biochemical, Trichoplax adhaerens
Method: steady-state kinetics (Km), fluorescence UDP-detection assay on TaOGT (Trichoplax O-GlcNAc transferase) | The Km for UDP-GlcNAc was measured in the presence of excess peptide substrate

Molecule: CCNC1=N[C@@H]2[C@@H](O)[C@H](O)[C@@H](CO)O[C@@H]2S1 [Thiamet G]
IC50 [1]: c, IC50 of Thiamet G and GlcNAcstatin C for TaOGA53.

IC50 [2]: 27 µM
Molecule: CC(=O)N[C@H](C(=O)N[C@H](C(=O)N1CCC[C@H]1C(=O)N[C@H](C(=O)N[C@@H](COCCCOP(=O)(O)OP(=O)(O)OC[C@H]1O[C@@H](n2ccc(=O)[nH]c2=O)[C@H](O)[C@@H]1O)C(=O)N[C@H](C(=O)N[C@@H](C)C(N)=O)[C@@H](C)O)C(C)C)[C@@H](C)O)C(C)C [Goblin 1] (Ac-VTPVS(Propyl(3-UDP))TA-NH2)

B1: TaOGA54 (Trichoplax O-GlcNAcase) (Trichoplax adhaerens) (protein)
chain: MTSDKFLSGVVEGFYGKPWSFEQRKTLFSNMAKWGLNTYMYGPKDDEKHRAAWKQAYSKREGDSLRALIRAAEESGILFIYAISPGVDITYSSNRDMKFLKDKLDQIRNFGCNSFAIFFDDIDTVMCLQDQEEFESFAAAQVEVTNEIYKYLGMPANFLFCPTEYCAARADPNVKESKYLVTVGTGLHSDIHIMWTGPKVVSNKISVESILELQTVLRRKPVIWDNIHANDYEQGRLNLGPYDCRPAELMESLNGIFTNPNCEFELNYVPIRTFSLWCQSKRTRFNYDVEKALEQSIREWTEEFCIPRLPDGYLLEADTSDTNVNEYMDDEMQSDSRPISPANSMETDKDELTVKDIRLLVELFYLPQKHGKTANDLLAQAKWLKSNFRIAALSRKPNDTSEGSNLDEHNTDYIAAKEWDKRFSKFRSICQIIHQFGDRLMTCRNRVLLYEVYNYVADLCGILYHLISRIHSLANPEKLEKRSDSEQSSFRYGGFVGDIHRLIVSTDEYEESTLKNSDAYVIRPFMPSDEETLYDLCLKSCIENSNGDEIYKREPRIIGDRDLGAYIYLHPEYIYVLEDDRDKICGYLCGALDSKQFYERYESEWLTQIRDRHPQPENDIASWTPEEIVANSFYNFTPPTDVSVLYLSHLEARFDSSVPEKVIKRIIRFILEQLKAKGSYGASMLIDSWRTNLRRIFTSMGFVDLQEYSWMSEQKCMIAIKLM
Km (purified protein): 2000 ± 100 µM

B2: TaOGT (Trichoplax O-GlcNAc transferase) (Trichoplax adhaerens) (protein)
chain: MVDQTNGIAEIAHREYQQGNYERAEHLAMEWWRHEQDNVGVLLLLSSIHFQTRKLDKSAHFCNMAIKSNPALSEAYSNLGNVFKERNQLKEALENYRYALRLRPDFIDGYINLASALVAAQDLEGAVKAYATALQYNPNLYCVRNDLGNLLKALGRLEEAKACYLKAIETQPNFAVAWSNLGCVFNSQGEIWLAIHHFEKAVTLDNGFLDAYINLGNVLKEARIFDRASTAYLRALNLSPNNPTVLGNLACVYYEQGLMDLAVDTYKRAIELQPNFPDAYCNLANALKELGKVTEAEECYNTALSLCPTHADSLNNLANIKREKGQIGEASKLYRKALEIFPEFAAAHSNLASVLQQQGKLQEALAHYKEAIRINPSFADAYSNMGNTLKEMQDVQGAIQCYTRAIQINPNFADAHSNLASIHKDSGSIPEAIANYRTALKLKPDFPDAFCNLAHCYQIICDWADYELRMKRLVSIVQDQLEKGRLPSVHPHHTMLYPLDGHTRKAISNRHGNLCLDRTATIHKPPYKFTPNIILPNGKLKIGYVSSDFGNHPTSHLMQSIPKLHDRSRVEVYCYSLTADDGTSFRKEISRGSDHFVDLSQVQCHGDAADRINADGIHILLNMNGYTKGARNEIFALRPAPIQMMWLGYPGTSGAAFMDYIITDKITSPMEYADHYSEKLAFLPNSFFIGDHRHMFAHLSVRATDNGRDRVINLSEGSAPDLDMKDIIEAQLREALSKIDNTSSHINTSTNLISNGTLGSNAVIPNGGPIINGNGDSVPNGPGVNVPSGMVLTTRAQYGLPSKAIIYCNFNQLYKIDPKILETWVRILKRVPNSILWLLRFPAAGEAMLKNTILKMGLPADRVVFTNVAPKEEHVRRGQLADICLDTPMCNGHTTGMDVLWAGVPMITMPKETLASRVASSQLTSLGVSELIAKDLTEYEDVAVKYGSDITRLRKLQDKIWQLRHKSTLFNTKTYCQNLEELYVKVWDRYSQGLEPDHIIY
notes: TaOGT, start identified by RACE, wild type, GST tag cleaved
Km [3]: 13 ± 2 µM

B3: TaOGA53 (Trichoplax O-GlcNAcase) (Trichoplax adhaerens) (protein)
chain: MNHNFICGVIEGFYGLPWSFTDRLDLFERLKKWGLNTYIYGPKDDYKHRSAWRDLYTETEADLFRALIKNAIVNDVIFVYAISPGNDICYSNASDIAALKDKLDQVRSFGCEAFAVFFDDIYCTMSKKDKGNFASFADAHVYIANLIYEHLNRPAVFMFCPTEYCATRAVPSVENSPYLTVIGDKLHPDVKVLWTGPDVISPFISVDSILALQEILKRKPIIWDNIHANDYDHSRIFLGPYQDRPIELAKVLSGVITNPNCEYRMNYVPIRTFSLWCQSQDKDDVQYSAESALTCAVEEWVKEFSVPSQLNIDQENIAVTMKDGIAKKDMTVTTEHLLLLIDIFYLPHKYGRHSIHLINMARWLQVNSNMITSTKETDKATSPSVKMWFQVFNEFNSLCQGILLLYDYLTMCPNQAISRELNSYIINLKKIFHILSLHINSLGTEATKHSSDATDTVDSSDAVVYGGILGEVVKIIKEGSDGDLKSSQQQVTACAIEVSLKNSDANMGADIPTNATVIG
Km (purified protein): 78 ± 5 µM

— paper PMC4424335 (The Journal of Biological Chemistry, 2015)
